From patent US20220306715A1

Legend:
[1] = molecular target: anti-IL-6ST antibody; assay: sandwich ELISA on the MSD platform; capture: plate-bound anti-IL-6ST antibody; detection: anti-IL-12A antibody
[2] = molecular target: interleukin-6 (IL-6) receptor; assay: cell-based or functional assay

| Substance | EC50 (read off the curve) [1] | EC50 of induction of apoptosis in IL-6 dependent DS-1 cells cultured 24 hours with IL-6 (caspase 3/7 luciferase assay) [2] |
| --- | --- | --- |
| mIL-6R-Fc-IL-35 chimeric protein (from UniProt Q00560 23-617; P43431 23-215; P22272 20-364; O35228 19-228) (Fc fusion) | 0.7 µg/mL |  |
| tocilizumab (antibody) |  | 317 nM |
